The values below are quoted from earlier work in patent publication US20240024386A1, “MICROBIOME MEDIATED INDUCTION OF IMMUNE TOLERANCE AND RESOLUTION OF INFLAMMATION” (INFINANT HEALTH, INC., priority 2020, published 2024).

For this data set, the system named is COVID-19. The following applies: triple therapy with lopinavir—ritonavir and ribavirin.

B1: IFNβ-1b: interferon beta-1b, used in triple therapy with lopinavir—ritonavir and ribavirin (protein, UniProt P01574 22-187, looked up, variant C17S)
Interferon beta: MSYNLLGFLQRSSNFQSQKLLWQLNGRLEYCLKDRMNFDIPEEIKQLQQFQKEDAALTIYEMLQNIFAIFRQDSSSTGWNETIVENLLANVYHQINHLKTVLEEKLEKEDFTRGKLMSSLHLKRYYGRILHYLKAKEYSHCAWTIVRVEILRNFYFINRLTGYLRN
modifications: lacks Met1; non-glycosylated
notes: interferon beta-1b, used in triple therapy with lopinavir—ritonavir and ribavirin
Take B1: the “period of viral shedding for COVID-19” value is recorded as “shortened”.
